ChEMBL document CHEMBL2074524, “Delineating the contribution of secretory transporters in the efflux of etoposide using Madin-Darby canine kidney (MDCK) cells overexpressing P-glycoprotein (Pgp), multidrug resistance-associated protein (MRP1), and canalicular multispecific organic anion transporter (cMOAT)” (Drug Metab Dispos, 2002)
Blank lines part the entries; values can stand above or below the molecule they belong to.

Experiments:
[1] = tested on: COc1cc([C@@H]2c3cc4c(cc3[C@@H](O[C@@H]3O[C@@H]5CO[C@@H](C)O[C@H]5[C@H](O)[C@H]3O)[C@H]3COC(=O)[C@H]23)OCO4)cc(OC)c1O; test: TP_TRANSPORTER: transepithelial transport (basal to apical) in MDR1-expressing MDCKII cells; format: functional, cell-based, MDCK-II
[2] = molecular target: Multidrug resistance-associated protein 1 (Homo sapiens, UniProt P33527); test: TP_TRANSPORTER: transepithelial transport (basal to apical) in MRP1-expressing MDCKII cells; format: functional, cell-based; conditions: dog, mdck-ii
[3] = substrate: COc1cc([C@@H]2c3cc4c(cc3[C@@H](O[C@@H]3O[C@@H]5CO[C@@H](C)O[C@H]5[C@H](O)[C@H]3O)[C@H]3COC(=O)[C@H]23)OCO4)cc(OC)c1O; test: TP_TRANSPORTER: transepithelial transport (basal to apical) in MRP2-expressing MDCKII cells; format: functional, cell-based, MDCK-II

Chain of Multidrug resistance-associated protein 1 (P33527 whole entry): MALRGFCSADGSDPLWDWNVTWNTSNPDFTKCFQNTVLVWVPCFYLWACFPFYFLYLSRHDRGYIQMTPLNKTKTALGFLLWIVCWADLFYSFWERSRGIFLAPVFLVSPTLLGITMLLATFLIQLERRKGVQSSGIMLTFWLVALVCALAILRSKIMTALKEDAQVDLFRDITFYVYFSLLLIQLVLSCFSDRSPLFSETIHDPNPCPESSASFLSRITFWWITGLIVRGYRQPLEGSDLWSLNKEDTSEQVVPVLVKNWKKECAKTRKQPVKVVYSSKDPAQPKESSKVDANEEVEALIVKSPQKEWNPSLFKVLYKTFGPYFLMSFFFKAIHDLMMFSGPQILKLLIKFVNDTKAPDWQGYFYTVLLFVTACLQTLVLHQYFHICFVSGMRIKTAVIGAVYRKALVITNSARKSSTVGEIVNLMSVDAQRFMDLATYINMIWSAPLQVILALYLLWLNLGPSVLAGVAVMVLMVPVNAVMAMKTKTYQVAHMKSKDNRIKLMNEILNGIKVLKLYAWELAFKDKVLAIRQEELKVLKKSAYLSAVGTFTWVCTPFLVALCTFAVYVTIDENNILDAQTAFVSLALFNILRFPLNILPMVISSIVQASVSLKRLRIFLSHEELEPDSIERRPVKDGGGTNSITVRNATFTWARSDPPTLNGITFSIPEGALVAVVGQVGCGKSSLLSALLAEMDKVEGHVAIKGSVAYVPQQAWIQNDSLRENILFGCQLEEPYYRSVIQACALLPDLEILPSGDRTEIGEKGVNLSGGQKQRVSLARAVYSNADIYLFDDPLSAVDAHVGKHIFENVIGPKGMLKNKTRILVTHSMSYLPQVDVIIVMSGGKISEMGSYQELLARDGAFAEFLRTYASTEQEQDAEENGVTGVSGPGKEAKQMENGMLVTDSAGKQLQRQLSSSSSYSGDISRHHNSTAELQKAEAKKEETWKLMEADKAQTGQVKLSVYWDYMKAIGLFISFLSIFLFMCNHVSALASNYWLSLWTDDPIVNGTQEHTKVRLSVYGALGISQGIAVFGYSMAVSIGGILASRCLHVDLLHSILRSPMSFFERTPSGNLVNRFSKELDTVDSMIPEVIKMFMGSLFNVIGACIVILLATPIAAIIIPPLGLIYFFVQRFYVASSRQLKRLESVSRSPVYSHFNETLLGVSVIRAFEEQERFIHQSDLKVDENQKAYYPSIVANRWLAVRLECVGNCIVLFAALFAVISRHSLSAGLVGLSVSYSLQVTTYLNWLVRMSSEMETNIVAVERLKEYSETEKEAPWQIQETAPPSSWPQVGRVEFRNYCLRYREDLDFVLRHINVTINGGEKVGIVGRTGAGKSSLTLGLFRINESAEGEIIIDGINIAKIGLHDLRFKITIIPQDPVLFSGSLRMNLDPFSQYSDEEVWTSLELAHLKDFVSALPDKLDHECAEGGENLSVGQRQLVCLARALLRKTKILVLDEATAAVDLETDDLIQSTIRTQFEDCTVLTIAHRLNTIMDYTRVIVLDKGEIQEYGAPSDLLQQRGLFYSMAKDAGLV

Molecule: ATP-dependent translocase ABCB1 (Homo sapiens)
Km [1]: 255 µM

Activity [2]: is not a substrate [-]
Molecule: COc1cc([C@@H]2c3cc4c(cc3[C@@H](O[C@@H]3O[C@@H]5CO[C@@H](C)O[C@H]5[C@H](O)[C@H]3O)[C@H]3COC(=O)[C@H]23)OCO4)cc(OC)c1O [ETOPOSIDE]

B1: ATP-binding cassette sub-family C member 2 (Homo sapiens) (protein)
chain: MLEKFCNSTFWNSSFLDSPEADLPLCFEQTVLVWIPLGYLWLLAPWQLLHVYKSRTKRSSTTKLYLAKQVFVGFLLILAAIELALVLTEDSGQATVPAVRYTNPSLYLGTWLLVLLIQYSRQWCVQKNSWFLSLFWILSILCGTFQFQTLIRTLLQGDNSNLAYSCLFFISYGFQILILIFSAFSENNESSNNPSSIASFLSSITYSWYDSIILKGYKRPLTLEDVWEVDEEMKTKTLVSKFETHMKRELQKARRALQRRQEKSSQQNSGARLPGLNKNQSQSQDALVLEDVEKKKKKSGTKKDVPKSWLMKALFKTFYMVLLKSFLLKLVNDIFTFVSPQLLKLLISFASDRDTYLWIGYLCAILLFTAALIQSFCLQCYFQLCFKLGVKVRTAIMASVYKKALTLSNLARKEYTVGETVNLMSVDAQKLMDVTNFMHMLWSSVLQIVLSIFFLWRELGPSVLAGVGVMVLVIPINAILSTKSKTIQVKNMKNKDKRLKIMNEILSGIKILKYFAWEPSFRDQVQNLRKKELKNLLAFSQLQCVVIFVFQLTPVLVSVVTFSVYVLVDSNNILDAQKAFTSITLFNILRFPLSMLPMMISSMLQASVSTERLEKYLGGDDLDTSAIRHDCNFDKAMQFSEASFTWEHDSEATVRDVNLDIMAGQLVAVIGPVGSGKSSLISAMLGEMENVHGHITIKGTTAYVPQQSWIQNGTIKDNILFGTEFNEKRYQQVLEACALLPDLEMLPGGDLAEIGEKGINLSGGQKQRISLARATYQNLDIYLLDDPLSAVDAHVGKHIFNKVLGPNGLLKGKTRLLVTHSMHFLPQVDEIVVLGNGTIVEKGSYSALLAKKGEFAKNLKTFLRHTGPEEEATVHDGSEEEDDDYGLISSVEEIPEDAASITMRRENSFRRTLSRSSRSNGRHLKSLRNSLKTRNVNSLKEDEELVKGQKLIKKEFIETGKVKFSIYLEYLQAIGLFSIFFIILAFVMNSVAFIGSNLWLSAWTSDSKIFNSTDYPASQRDMRVGVYGALGLAQGIFVFIAHFWSAFGFVHASNILHKQLLNNILRAPMRFFDTTPTGRIVNRFAGDISTVDDTLPQSLRSWITCFLGIISTLVMICMATPVFTIIVIPLGIIYVSVQMFYVSTSRQLRRLDSVTRSPIYSHFSETVSGLPVIRAFEHQQRFLKHNEVRIDTNQKCVFSWITSNRWLAIRLELVGNLTVFFSALMMVIYRDTLSGDTVGFVLSNALNITQTLNWLVRMTSEIETNIVAVERITEYTKVENEAPWVTDKRPPPDWPSKGKIQFNNYQVRYRPELDLVLRGITCDIGSMEKIGVVGRTGAGKSSLTNCLFRILEAAGGQIIIDGVDIASIGLHDLREKLTIIPQDPILFSGSLRMNLDPFNNYSDEEIWKALELAHLKSFVASLQLGLSHEVTEAGGNLSIGQRQLLCLGRALLRKSKILVLDEATAAVDLETDNLIQTTIQNEFAHCTVITIAHRLHTIMDSDKVMVLDNGKIIECGSPEELLQIPGPFYFMAKEAGIENVNSTKF
Km [3]: 617 µM
